Measured values as given in patent publication US20230357367A1.
Like-named read-outs stand apart in the source and are kept apart here.

Experiments:
Test in all cases: cell-based or functional assay
[1] = target: spike (SARS-CoV-2, BQ.1.1) (SARS-CoV-2)
[2] = target: spike (SARS-CoV-2, B.1.617.2, Delta) (SARS-CoV-2)
[3] = target: spike (SARS-CoV-2, XBB.1.5) (SARS-CoV-2)
[4] = target: spike (SARS-CoV-2, BQ.1.1) (SARS-CoV-2); remark: listed apart in the source
[5] = target: spike (SARS-CoV-2, B.1.617.2, Delta) (SARS-CoV-2); remark: listed apart in the source
[6] = target: spike (SARS-CoV-2, XBB.1.5) (SARS-CoV-2); remark: listed apart in the source
[7] = target: spike (SARS-CoV-2, BA.2) (SARS-CoV-2)
[8] = target: spike (SARS-CoV-2, BQ.1.1) (SARS-CoV-2); remark: listed apart in the source
[9] = target: spike (SARS-CoV-2, B.1.617.2, Delta) (SARS-CoV-2); remark: listed apart in the source
[10] = target: spike (SARS-CoV-2, XBB.1.5) (SARS-CoV-2); remark: listed apart in the source
[11] = target: spike (SARS-CoV-2, BQ.1.1) (SARS-CoV-2); remark: listed apart in the source
[12] = target: spike (SARS-CoV-2, B.1.617.2, Delta) (SARS-CoV-2); remark: listed apart in the source
[13] = target: spike (SARS-CoV-2, XBB.1.5) (SARS-CoV-2); remark: listed apart in the source
[14] = target: SARS-CoV-2 Omicron BA.2 Spike on pseudovirus (SARS-CoV-2)
[15] = target: SARS-CoV-2 Omicron BA.4/5 Spike on pseudovirus (SARS-CoV-2)
[16] = target: SARS-CoV-2 Omicron BA.2.12.1 Spike on pseudovirus (SARS-CoV-2)
[17] = target: SARS-CoV-2 Delta Spike on virus particles (SARS-CoV-2)
[18] = target: SARS-CoV-2 Omicron BA.1 Spike on virus particles (SARS-CoV-2)
[19] = target: SARS-CoV-2 Omicron BA.2 Spike on pseudovirus (SARS-CoV-2); remark: listed apart in the source
[20] = target: SARS-CoV-2 Omicron BA.4/5 Spike on pseudovirus (SARS-CoV-2); remark: listed apart in the source
[21] = target: SARS-CoV-2 Omicron BA.2.12.1 Spike on pseudovirus (SARS-CoV-2); remark: listed apart in the source
[22] = target: SARS-CoV-2 Delta Spike on virus particles (SARS-CoV-2); remark: listed apart in the source
[23] = target: SARS-CoV-2 Omicron BA.1 Spike on virus particles (SARS-CoV-2); remark: listed apart in the source
[24] = target: spike (SARS-CoV-2, BA.4/5) (SARS-CoV-2)
[25] = target: spike (SARS-CoV-2, BA.2.75.2) (SARS-CoV-2)
[26] = target: spike (SARS-CoV-2, BA.4.6) (SARS-CoV-2)
[27] = target: spike (SARS-CoV-2, BA.2.3.20) (SARS-CoV-2)
[28] = target: spike (SARS-CoV-2, BQ.1.1) (SARS-CoV-2); remark: listed apart in the source
[29] = target: spike (SARS-CoV-2, BA.2.12.1) (SARS-CoV-2)
[30] = target: spike (SARS-CoV-2, B.1.617.2, Delta) (SARS-CoV-2); remark: listed apart in the source
[31] = target: spike (SARS-CoV-2, BF.7) (SARS-CoV-2)
[32] = target: spike (SARS-CoV-2, BF.7.14) (SARS-CoV-2)
[33] = target: spike (SARS-CoV-2, BQ.1) (SARS-CoV-2)
[34] = target: spike (SARS-CoV-2, BN.1) (SARS-CoV-2)
[35] = target: spike (SARS-CoV-2, XBB.1) (SARS-CoV-2)
[36] = target: spike (SARS-CoV-2, XBB.1.5) (SARS-CoV-2); remark: listed apart in the source
[37] = target: spike (SARS-CoV-2, BA.1.1) (SARS-CoV-2)
[38] = target: spike (SARS-CoV-2, BA.1) (SARS-CoV-2)
[39] = target: spike (SARS-CoV-2, BA.2.75) (SARS-CoV-2)
[40] = target: spike (SARS-CoV-2, CH.1.1) (SARS-CoV-2)

Q: What does the source list for sotrovimab VH/VL-huIgG1-LS (antibody)?
A: EC50, pseudovirus neutralization, Vero E6, with isotype [1]: 1200 ng/mL; EC50, pseudovirus neutralization, Vero E6, with isotype [2]: 7.9 ng/mL; EC50, pseudovirus neutralization, Vero E6, with isotype [3]: 170 ng/mL; EC80, pseudovirus neutralization, Vero E6, with isotype [4]: 4400 ng/mL; EC80, pseudovirus neutralization, Vero E6, with isotype [5]: 42 ng/mL; EC80, pseudovirus neutralization, Vero E6, with isotype [6]: 680 ng/mL; EC50, pseudovirus neutralization, Vero E6 [7]: 851 ng/mL; EC90, pseudovirus neutralization, Vero E6, with isotype [8]: 9600 ng/mL; EC90, pseudovirus neutralization, Vero E6, with isotype [9]: 110 ng/mL; EC90, pseudovirus neutralization, Vero E6, with isotype [10]: 1500 ng/mL; Emax, pseudovirus neutralization, Vero E6, with isotype (% neutralization) [11]: 71.9; Emax, pseudovirus neutralization, Vero E6, with isotype (% neutralization) [12]: 96.9; Emax, pseudovirus neutralization, Vero E6, with isotype (% neutralization) [13]: 93.4

Q: Which results are given for AZD1061 (antibody)?
A: IC50, pseudovirus neutralization [14]: 5.8 ng/mL; IC50, pseudovirus neutralization [15]: 41.2 ng/mL; IC50, pseudovirus neutralization [16]: 5.1 ng/mL; IC50, pseudovirus neutralization [17]: 5.9 ng/mL; IC50, pseudovirus neutralization [18]: 1220 ng/mL; % neutralization at 4.5 µg/ml, pseudovirus [19]: 99.7%; % neutralization at 4.5 µg/ml, pseudovirus [20]: 96.7%; % neutralization at 4.5 µg/ml, pseudovirus [21]: 99.8%; % neutralization at 4.5 µg/ml, pseudovirus [22]: 100%; % neutralization at 4.5 µg/ml, pseudovirus [23]: 83.9%

Q: sotrovimab VH/VL-huIgG1 (antibody) was tested. Which EC50, pseudovirus neutralization, Vero E6 [7] did it give?
A: 862 ng/mL

Q: With “Sotrovimab VH/VL (human IgG1 molecule expressing the same variable regions of Sotrovimab) (antibody)” as the substance, how does the IC50, pseudovirus neutralization [14] read?
A: 392 ng/mL

Q: What about the IC50, pseudovirus neutralization [15] of the same substance?
A: 666 ng/mL

Q: What about the IC50, pseudovirus neutralization [16] of the same substance?
A: 714 ng/mL

Q: And the IC50, pseudovirus neutralization [17]?
A: 12.3 ng/mL

Q: And the IC50, pseudovirus neutralization [18]?
A: 63.3 ng/mL

Q: And the % neutralization at 4.5 µg/ml, pseudovirus [19]?
A: 73.1%

Q: And the IC50, pseudovirus neutralization [19]?
A: 704 ng/mL

Q: What about the % neutralization at 4.5 µg/ml, pseudovirus [20] of the same substance?
A: 60.5%

Q: And the IC50, pseudovirus neutralization [20]?
A: > 4500 ng/mL

Q: And the Neutralization - IC50, pseudovirus [20]?
A: 424 ng/mL

Q: What about the % neutralization at 4.5 µg/ml, pseudovirus [21] of the same substance?
A: 76.9%

Q: What about the IC50, pseudovirus neutralization [21] of the same substance?
A: 1200 ng/mL

Q: What about the % neutralization at 4.5 µg/ml, pseudovirus [22] of the same substance?
A: 101%

Q: What about the IC50, live virus neutralization [22] of the same substance?
A: 57.9 ng/mL

Q: What about the IC50, pseudovirus neutralization [22] of the same substance?
A: 65 ng/mL

Q: What about the % neutralization at 4.5 µg/ml, pseudovirus [23] of the same substance?
A: 99.4%

Q: What about the IC50, live virus neutralization [23] of the same substance?
A: 410 ng/mL

Q: Which IC50, pseudovirus neutralization [14] does the source give for AZD8895 (antibody) here?
A: 608 ng/mL

Q: What about the IC50, pseudovirus neutralization [16] of the same substance?
A: 415 ng/mL

Q: And the IC50, pseudovirus neutralization [17]?
A: 0.5 ng/mL

Q: And the IC50, pseudovirus neutralization [18]?
A: 1160 ng/mL

Q: What about the % neutralization at 4.5 µg/ml, pseudovirus [19] of the same substance?
A: 93.9%

Q: And the % neutralization at 4.5 µg/ml, pseudovirus [20]?
A: 25.8%

Q: What about the % neutralization at 4.5 µg/ml, pseudovirus [21] of the same substance?
A: 94.2%

Q: And the % neutralization at 4.5 µg/ml, pseudovirus [22]?
A: 102%

Q: And the % neutralization at 4.5 µg/ml, pseudovirus [23]?
A: 96.5%

Q: For Bebtelovimab (antibody), which Neutralization - IC50, pseudovirus [20] is on record?
A: 0.3 ng/mL

Q: What does the source list for bebtelovimab (antibody)?
A: EC50, pseudovirus neutralization, Vero E6, with isotype [2]: 0.44 ng/mL; EC80, pseudovirus neutralization, Vero E6, with isotype [5]: 3.5 ng/mL; EC50, pseudovirus neutralization [24]: 0.073 ng/mL; EC80, pseudovirus neutralization [24]: 1.2 ng/mL; EC90, pseudovirus neutralization [24]: 6.4 ng/mL; Emax, pseudovirus neutralization (% neutralization) [24]: 99.8; EC50, pseudovirus neutralization [25]: 0.46 ng/mL; EC80, pseudovirus neutralization [25]: 6.3 ng/mL; EC90, pseudovirus neutralization [25]: 29 ng/mL; Emax, pseudovirus neutralization (% neutralization) [25]: 99.5; EC50, pseudovirus neutralization [26]: 0.2 ng/mL; EC80, pseudovirus neutralization [26]: 2.5 ng/mL; EC90, pseudovirus neutralization [26]: 11 ng/mL; Emax, pseudovirus neutralization (% neutralization) [26]: 99.6; EC50, pseudovirus neutralization [27]: 12 ng/mL; EC80, pseudovirus neutralization [27]: 360 ng/mL; EC90, pseudovirus neutralization [27]: 2600 ng/mL; Emax, pseudovirus neutralization (% neutralization) [27]: 97.9; Emax, pseudovirus neutralization (% neutralization) [28]: 53; Emax, pseudovirus neutralization, TMPRSS2-Vero E6, with isotype (% neutralization) [28]: 40.5; Emax, pseudovirus neutralization, Vero E6, with isotype (% neutralization) [28]: 59.1; EC50, pseudovirus neutralization [29]: 0.2 ng/mL; EC80, pseudovirus neutralization [29]: 1.2 ng/mL; EC90, pseudovirus neutralization [29]: 3.6 ng/mL; Emax, pseudovirus neutralization (% neutralization) [29]: 99.9; EC50, live virus neutralization [30]: 4.6 ng/mL; EC50, pseudovirus neutralization [30]: 3.8 ng/mL; EC50, pseudovirus neutralization, TMPRSS2-Vero E6, with isotype [30]: 1.6 ng/mL; EC50, pseudovirus neutralization, Vero E6, with isotype [30]: 0.63 ng/mL; EC80, pseudovirus neutralization [30]: 23 ng/mL; EC80, pseudovirus neutralization, TMPRSS2-Vero E6, with isotype [30]: 13 ng/mL; EC80, pseudovirus neutralization, Vero E6, with isotype [30]: 4.2 ng/mL; EC90, live virus neutralization [30]: 15.9 ng/mL; EC90, pseudovirus neutralization [30]: 66 ng/mL; EC90, pseudovirus neutralization, TMPRSS2-Vero E6, with isotype [30]: 43 ng/mL; EC90, pseudovirus neutralization, Vero E6, with isotype [30]: 13 ng/mL; Emax, pseudovirus neutralization (% neutralization) [30]: 99.9; Emax, pseudovirus neutralization, TMPRSS2-Vero E6, with isotype (% neutralization) [30]: 99.7; Emax, pseudovirus neutralization, Vero E6, with isotype (% neutralization) [30]: 99.7; EC50, pseudovirus neutralization [31]: 0.11 ng/mL; EC80, pseudovirus neutralization [31]: 1.7 ng/mL; EC90, pseudovirus neutralization [31]: 8.5 ng/mL; Emax, pseudovirus neutralization (% neutralization) [31]: 99.8; EC50, pseudovirus neutralization [32]: 0.22 ng/mL; EC80, pseudovirus neutralization [32]: 1.4 ng/mL; EC90, pseudovirus neutralization [32]: 4.1 ng/mL; Emax, pseudovirus neutralization (% neutralization) [32]: 99.8; Emax, pseudovirus neutralization (% neutralization) [33]: 72.2; EC50, pseudovirus neutralization [34]: 0.467 ng/mL; EC80, pseudovirus neutralization [34]: 5.3 ng/mL; EC90, pseudovirus neutralization [34]: 22 ng/mL; Emax, pseudovirus neutralization (% neutralization) [34]: 99.4; Emax, pseudovirus neutralization (% neutralization) [35]: 10.8; Emax, pseudovirus neutralization (% neutralization) [36]: 2.01; Emax, pseudovirus neutralization, TMPRSS2-Vero E6, with isotype (% neutralization) [36]: 2.93; Emax, pseudovirus neutralization, Vero E6, with isotype (% neutralization) [36]: 4.21; EC50, pseudovirus neutralization [37]: 0.12 ng/mL; EC80, pseudovirus neutralization [37]: 1.3 ng/mL; EC90, pseudovirus neutralization [37]: 5.6 ng/mL; Emax, pseudovirus neutralization (% neutralization) [37]: 99.9; EC50, pseudovirus neutralization [38]: 0.17 ng/mL; EC80, pseudovirus neutralization [38]: 1.8 ng/mL; EC90, pseudovirus neutralization [38]: 7.2 ng/mL; Emax, pseudovirus neutralization (% neutralization) [38]: 99.8; EC50, pseudovirus neutralization [39]: 0.65 ng/mL; EC80, pseudovirus neutralization [39]: 8.2 ng/mL; EC90, pseudovirus neutralization [39]: 36 ng/mL; Emax, pseudovirus neutralization (% neutralization) [39]: 99.5; EC50, pseudovirus neutralization [7]: 0.2 ng/mL; EC80, pseudovirus neutralization [7]: 1.4 ng/mL; EC90, pseudovirus neutralization [7]: 4.4 ng/mL; Emax, pseudovirus neutralization (% neutralization) [7]: 99.9; Emax, pseudovirus neutralization (% neutralization) [40]: 5.32; EC90, pseudovirus neutralization, Vero E6, with isotype [9]: 12 ng/mL; Emax, pseudovirus neutralization, Vero E6, with isotype (% neutralization) [11]: 55.6; Emax, pseudovirus neutralization, Vero E6, with isotype (% neutralization) [12]: 99.7; Emax, pseudovirus neutralization, Vero E6, with isotype (% neutralization) [13]: 0.55

Q: With sotrovimab VH/VL-hamIgG2a (antibody) as the substance, how does the EC50, pseudovirus neutralization, Vero E6 [7] read?
A: 361 ng/mL
